Source: US20230063794A1, “STAPLED TRIAZOLE CO-AGONISTS OF THE GLUCAGON AND GLP-1 RECEPTORS” (Merck Sharp & Dohme LLC, priority 2019, published 2023)
Starred links: 1 amine or outer side, 2 acyl side, 3 side chain; linkers in the order of their positions; H or OH if unused. Positions of bridges follow the written chain, without caps; N, C: chain ends. Non-standard residues stand in square brackets, D forms with d. Residues, ends and D or L forms follow the SMILES beside them. Groups on a side chain read outwards from the residue. Triazole bridges read from a SMILES are 1,4-linked. No end group written: not given here. *: point of attachment. Peg3N3Ala = O-(2-(2-(2-azidoethoxy)ethoxy)ethyl)-L-serine, [N-]=[N+]=NCCOCCOCCOC[C@H](N[*:1])C(=O)[*:2]; Lys(N3) = [N-]=[N+]=NCCCC[C@H](N)C(=O)O; γGlu = O=C(O)[C@H](CCC(=O)[*:2])N[*:1]; Met(O2) = CS(=O)(=O)CC[C@H](N)C(=O)O; Palmitoyl = CCCCCCCCCCCCCCCC(=O)*; dPra = C#CC[C@@H](N)C(=O)O; Nle = CCCC[C@H](N)C(=O)O; Ac4c = NC1(C(=O)O)CCC1; Aib = CC(C)(N)C(=O)O

Tests used:
[1] = molecular target: T1, human GCGR (Homo sapiens, UniProt P47871); experiment: cAMP activity assay in cells expressing human GCGR; format: cell-based
T1 construct: expressed in transfected cells; grown under Blasticidin and Hygromycin selection
T1 sequence (P47871 26-477): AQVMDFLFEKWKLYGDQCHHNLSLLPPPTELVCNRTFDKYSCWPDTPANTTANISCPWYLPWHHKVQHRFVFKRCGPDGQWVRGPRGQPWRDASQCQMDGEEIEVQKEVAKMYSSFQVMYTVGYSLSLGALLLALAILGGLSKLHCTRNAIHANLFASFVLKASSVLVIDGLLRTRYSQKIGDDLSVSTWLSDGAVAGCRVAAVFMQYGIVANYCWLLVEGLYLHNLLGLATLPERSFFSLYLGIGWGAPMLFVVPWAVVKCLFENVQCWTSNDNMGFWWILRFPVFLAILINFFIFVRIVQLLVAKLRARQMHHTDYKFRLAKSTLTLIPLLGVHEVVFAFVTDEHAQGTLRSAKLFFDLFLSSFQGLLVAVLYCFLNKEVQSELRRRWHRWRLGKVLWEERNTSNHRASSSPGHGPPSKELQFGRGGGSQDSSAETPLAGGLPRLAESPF
Experimental: Activity of the peptides at the Glucagon receptor (GCGR) and GLP-1 receptor (GLP1R) was measured in a cAMP activity assay.
Peptides were dissolved in 100% DMSO and serially diluted to generate 10 point titrations. The peptide solutions were then transferred into 384-well assay plates (150 nL/well). Assay ready frozen cells expressing human GLP1R or human GCGR were suspended in growth media consisting of DMEM medium (GIBCO), 10% FBS (GIBCO), 1× NEAA(GIBCO), 1× P/S (GIBCO), 10 ug/ml Blasticidin (GIBCO) and 200 μg/mL Hygromycin (GIBCO). Cells were then diluted in assay buffer consisting of PBS (GIBCO), 7.5% BSA (Perkin Elmer), 100 μM RO 20-1724 (Sigma), with or without 20% human serum (MP Biomedical). The cell suspensions (15 μL) were then added to the assay plates containing the peptide solutions (30,000 cells/well for human GCGR; 10,000 cells/well for human GLP1R). The cells were incubated for 1 hour at room temperature in the dark. Production of cAMP was determined using HitHunter™ cAMPXS kits (DiscoverX) following manufacturer protocol. The plates were incubated for overnight at room temperature in the dark. Luminescence was measured using an EnVision Multilabel plate reader (Perkin Elmer). Native GLP-1 and Glucagon (Bachem) are used as control peptides. EC50 values were calculated using uses a 4 parameter logistic fit based on the Levenberg-Marquardt algorithm.

[2] = molecular target: human GLP-1 receptor (GLP1R) (human, UniProt P43220 24-463); experiment: cell-based or functional assay
[3] = molecular target: human Glucagon receptor (GCGR) (human, UniProt P47871 26-477); experiment: cell-based or functional assay
human Glucagon receptor (GCGR), sequence (P47871 26-477): as above

CC(C)C[C@H](NC(=O)[C@H](Cc1ccc(O)cc1)NC(=O)[C@H](CCCCN)NC(=O)[C@H](CO)NC(=O)[C@H](CCCCN)NC(=O)[C@H](CC(=O)O)NC(=O)[C@H](CO)NC(=O)[C@@H](NC(=O)[C@H](Cc1ccccc1)NC(=O)[C@@H](NC(=O)CNC(=O)[C@H](CCC(N)=O)NC(=O)[C@@H](CO)NC(=O)[C@@H](N)Cc1c[nH]cn1)[C@@H](C)O)[C@@H](C)O)C(=O)N[C@@H](CC(=O)O)C(=O)N[C@@H](CCC(=O)O)C(=O)N[C@@H](CCCNC(=N)N)C(=O)N[C@@H](C)C(=O)N[C@@H](C)C(=O)N[C@@H]1Cc2cn(nn2)CCCC[C@@H](C(=O)N[C@@H](Cc2c[nH]c3ccccc23)C(=O)N[C@@H](CC(C)C)C(=O)N[C@@H](CC(C)C)C(=O)N[C@@H](CC(=O)O)C(=O)N[C@H](C(N)=O)[C@@H](C)O)NC(=O)[C@H](C(C)C)NC(=O)[C@H](Cc2ccccc2)NC(=O)[C@H](CC(=O)O)NC1=O [compound 9] (H-H[dS]QGTFTSDKSKYLDERAA[dPra]DFV[Lys(N3)]WLLDT-NH2; triazole 20-24)
hGCGR/hGLP1R (hTone) ([1]; ratio of human GCGR EC50 to human GLP1R EC50): 1.92

CSCC[C@@H]1NC(=O)[C@H](CC(C)C)NC(=O)[C@H](Cc2c[nH]c3ccccc23)NC(=O)[C@H](NC(=O)[C@@H](NC(=O)[C@H](Cc2ccccc2)NC(=O)[C@H](CC(=O)O)NC(=O)[C@H](CCC(N)=O)NC(=O)[C@H](C)NC(=O)[C@H](C)NC(=O)[C@H](CCCNC(=N)N)NC(=O)C(C)(C)NC(=O)[C@H](CC(=O)O)NC(=O)[C@H](CC(C)C)NC(=O)[C@H](Cc2ccc(O)cc2)NC(=O)[C@H](CCCCN)NC(=O)[C@H](CO)NC(=O)[C@H](CCCCN)NC(=O)[C@H](CC(=O)O)NC(=O)[C@H](CO)NC(=O)[C@@H](NC(=O)[C@H](Cc2ccccc2)NC(=O)[C@@H](NC(=O)CNC(=O)[C@H](CCC(N)=O)NC(=O)C(C)(C)NC(=O)[C@@H](N)Cc2c[nH]cn2)[C@@H](C)O)[C@@H](C)O)C(C)C)Cc2cn(nn2)CCCC[C@@H](C(=O)N[C@H](C(=O)N[C@@H](CCCCN)C(=O)N[C@@H](CCC(N)=O)C(=O)O)[C@@H](C)O)NC1=O [compound 11] (H-H[Aib]QGTFTSDKSKYLD[Aib]RAAQDFV[dPra]WLM[Lys(N3)]TKQ-OH; triazole 24-28; N-terminus assumed)
EC50 ([1]; cAMP production, HitHunter cAMPXS, 1 hour, assay buffer with or without 20% human serum (not given)): ≥ 5000 pM

B1: TP530 (peptide)
peptide: HXQGTFTSDKSKYLDERAAXDFVXWLLDT
modifications: D-Ser at 2; Nle(εN3) at 20 and pra at 24 cyclized to a triazole containing ring; C-terminal amide
GLP1R EC50 human (nM), cAMP activity assay [2]: 0.03 nM | GCGR EC50 human (nM), cAMP activity assay [3]: 0.06 nM

B2: TP862 (peptide)
peptide: H[Aib]QGTFTSDKSKYLD[Ac4c]RAAQDFV[dPra]WL[Met(O2)][Lys(N3)]TK-{γGlu-NH2}
modifications: triazole 24-28; not fully specified (residue 10); printed as HUQGTFTSDK(γEγEC16)SKYLDAcbRAAQDFVpra*WL2Nle(ϵN3)*T / KγE-NH2
GLP1R EC50 human (nM), cAMP activity assay [2]: 0.042 nM | GCGR EC50 human (nM), cAMP activity assay [3]: 0.139 nM

H[Aib]QGTFTSDK([γGlu-γGlu-Palmitoyl])SKYLD[Aib][dPra]AAQ[Lys(N3)]FVQWL[Met(O2)]DTK-{γGlu-NH2} (triazole 17-21) [TP849]
GLP1R EC50 human (nM), cAMP activity assay [2]: 0.041 nM | GCGR EC50 human (nM), cAMP activity assay [3]: 0.25 nM

B3: TP852 (peptide)
peptide: HXQGTFTSDXSKYLDARAAQDFVXWLLXT
modifications: D-Ser at 2; Lys 10 conjugated to γEγE-C16 fatty acid; Nle(εN3) at 24 and pra at 28 cyclized to a triazole containing ring; C-terminal amide
GLP1R EC50 human (nM), cAMP activity assay [2]: 0.109 nM | GCGR EC50 human (nM), cAMP activity assay [3]: 0.059 nM

H[Aib]QGTFTSDKSKYLD[Aib]RAAQDFV[dPra]WLM[Lys(N3)]TK-{γGlu-NH2} (triazole 24-28; also: lower-case v at 23 not defined) [TP533]
GLP1R EC50 human (nM), cAMP activity assay [2]: 3.11 nM | GCGR EC50 human (nM), cAMP activity assay [3]: 5 nM

H[Aib]QGTFTSDK([γGlu-γGlu-Palmitoyl])SKYLD[dPra]RAA[Lys(N3)]DFVQWL[Met(O2)]DTK-{γGlu-NH2} (triazole 16-20) [TP845]
GLP1R EC50 human (nM), cAMP activity assay [2]: 0.027 nM | GCGR EC50 human (nM), cAMP activity assay [3]: 0.134 nM

B4: TP487 (peptide)
peptide: HXQGTFTSDXSKYLDERAAXDFVXWLLDT
modifications: D-Ser at 2; Lys 10 conjugated to γEγE-C16 fatty acid; Nle(εN3) at 20 and pra at 24 cyclized to a triazole containing ring; C-terminal amide
GLP1R EC50 human (nM), cAMP activity assay [2]: 0.22 nM | GCGR EC50 human (nM), cAMP activity assay [3]: 0.09 nM

H[Aib]QGTFTSDKSKYLD[Aib]RAAQDFV[Lys(N3)]WLM[dPra]TK-{γGlu-NH2} (triazole 24-28) [TP532]
GLP1R EC50 human (nM), cAMP activity assay [2]: 0.14 nM | GCGR EC50 human (nM), cAMP activity assay [3]: 1.07 nM

H[Aib]QGTFTSDK([γGlu-γGlu-Palmitoyl])SKYLD[Aib]RAAQDFV[dPra]WL[Met(O2)][Lys(N3)]TK-{γGlu-NH2} (triazole 24-28) [TP851]
GLP1R EC50 human (nM), cAMP activity assay [2]: 0.025 nM | GCGR EC50 human (nM), cAMP activity assay [3]: 0.109 nM

B5: TP835 (peptide)
peptide: HXQGTFTSDXSKYLDARAAQDFVXWLLXT
modifications: D-Ser at 2; Lys 10 conjugated to γEγE-C16 fatty acid; pra at 24 and Nle(εN3) at 28 cyclized to a triazole containing ring; C-terminal amide
GLP1R EC50 human (nM), cAMP activity assay [2]: 0.199 nM | GCGR EC50 human (nM), cAMP activity assay [3]: 0.143 nM

B6: TP531 (peptide)
peptide: HXQGTFTSDKSKYLDERAAXDFVXWLLDT
modifications: D-Ser at 2; pra at 20 and Nle(εN3) at 24 cyclized to a triazole containing ring; C-terminal amide
GLP1R EC50 human (nM), cAMP activity assay [2]: 0.168 nM | GCGR EC50 human (nM), cAMP activity assay [3]: 0.323 nM

H[dS]QGTFTSDK([γGlu-γGlu-Palmitoyl])SKYLD[dPra]RAA[Lys(N3)]DFVQWLLDT-NH2 (triazole 16-20) [TP731]
GLP1R EC50 human (nM), cAMP activity assay [2]: 0.034 nM | GCGR EC50 human (nM), cAMP activity assay [3]: 0.03 nM

H[Aib]QGTFTSDK([γGlu-γGlu-Palmitoyl])SKYLD[Ac4c]RAA[dPra]DFV[Lys(N3)]WL[Met(O2)]DTK-{γGlu-NH2} (triazole 20-24) [TP860]
GLP1R EC50 human (nM), cAMP activity assay [2]: 0.042 nM | GCGR EC50 human (nM), cAMP activity assay [3]: 0.077 nM

H[Aib]QGTFTSDK([γGlu-γGlu-Palmitoyl])SKYLD[Aib][dPra]AAQ[Lys(N3)]FVQWL[Nle]DT-NH2 (triazole 17-21) [TP841]
GLP1R EC50 human (nM), cAMP activity assay [2]: 0.414 nM | GCGR EC50 human (nM), cAMP activity assay [3]: 0.819 nM

H[dS]QGTFTSDK([γGlu-γGlu-Palmitoyl])SKYLDA[dPra]AAQ[Lys(N3)]FVQWLLDT-NH2 (triazole 17-21) [TP733]
GLP1R EC50 human (nM), cAMP activity assay [2]: 0.54 nM | GCGR EC50 human (nM), cAMP activity assay [3]: 0.279 nM

H[dS]QGTFTSDK([γGlu-γGlu-Palmitoyl])SKYLDA[dPra]AAQDFV[Peg3N3Ala]WLLDT-NH2 (triazole 17-24) [TP920]
GLP1R EC50 human (nM), cAMP activity assay [2]: 0.416 nM | GCGR EC50 human (nM), cAMP activity assay [3]: 0.115 nM

H[Aib]QGTFTSDK([γGlu-γGlu-Palmitoyl])SKYLD[Ac4c][dPra]AAQ[Lys(N3)]FVQWL[Met(O2)]DTK-{γGlu-NH2} (triazole 17-21) [TP858]
GLP1R EC50 human (nM), cAMP activity assay [2]: 0.042 nM | GCGR EC50 human (nM), cAMP activity assay [3]: 0.064 nM

B7: TP488 (peptide)
peptide: HXQGTFTSDXSKYLDERAAXDFVXWLLDT
modifications: D-Ser at 2; Lys 10 conjugated to γEγE-C16 fatty acid; pra at 20 and Nle(εN3) at 24 cyclized to a triazole containing ring; C-terminal amide
GLP1R EC50 human (nM), cAMP activity assay [2]: 0.042 nM | GCGR EC50 human (nM), cAMP activity assay [3]: 0.04 nM

H[Aib]QGTFTSDK([γGlu-γGlu-Palmitoyl])SKYLD[dPra]RAA[Lys(N3)]DFVQWL[Nle]DT-NH2 (triazole 16-20) [TP837]
GLP1R EC50 human (nM), cAMP activity assay [2]: 0.042 nM | GCGR EC50 human (nM), cAMP activity assay [3]: 0.048 nM

H[Aib]QGTFTSDK([γGlu-γGlu-Palmitoyl])SKYLD[Aib]RAA[dPra]DFV[Lys(N3)]WL[Met(O2)]DTK-{γGlu-NH2} (triazole 20-24) [TP847]
GLP1R EC50 human (nM), cAMP activity assay [2]: 0.024 nM | GCGR EC50 human (nM), cAMP activity assay [3]: 0.107 nM

H[dS]QGTFTSDK([γGlu-γGlu-Palmitoyl])SKYLDARAA[dPra]DFV[Lys(N3)]WLLDT-NH2 (triazole 20-24) [TP732]
GLP1R EC50 human (nM), cAMP activity assay [2]: 0.123 nM | GCGR EC50 human (nM), cAMP activity assay [3]: 0.052 nM
